How the values were obtained:
O=C1CCCCC1 = assay: purified protein; details: co-substrates NADPH and O2, 50 mM Tris-HCl, pH 8, 25 °C
BVMOXeno = system: T1, BVMOXeno; assay: steady-state kinetics, NADPH consumption; assay type: biochemical, Paraburkholderia xenovorans; details: co-substrates NADPH and O2; 50 mM Tris-HCl, pH 8, 25 °C
T1 construct: gene BVMO_Xeno; purified enzyme, recombinant (E. coli); tag details only in supplement
Excerpt: steady-state kinetics, NADPH consumption on BVMOXeno

Compound	Km (O=C1CCCCC1) [µM]	kcat (O=C1CCCCC1) [s⁻¹]	kcat/Km (O=C1CCCCC1) [M⁻¹ s⁻¹]	Km (BVMOXeno) [µM]
CHMOAcineto (Acinetobacter johnsonii)	266.6 ± 25.5	4.54 ± 0.095	17000 ± 1670	
O=C1CCCCC1 [1a, cyclohexanone]				22.7 ± 5

From PMC8751089, “Photobiocatalytic Oxyfunctionalization with High Reaction Rate using a Baeyer–Villiger Monooxygenase from Burkholderia xenovorans in Metabolically Engineered Cyanobacteria” (ACS Catalysis, 2021)
